Experiment in all cases: EMSA
(In general: A gel shift assay detects complexes by their altered migration in electrophoresis.)

For data set [1], the system named is alpha-synuclein (aSyn) (human). As to conditions: EMSA: 11 mM Tris, 1 mM EDTA, 50 mM NaCl, pH 8.0-8.5, 20 min on ice then 30 min RT, mutants/deltaNAC: 4 ul protein in 20 mM Tris-HCl, 200 mM NaCl in 10 ul, 0.5% ….
Data set [2] has as its system phospho-S129 alpha-synuclein (pSyn) (human). As to conditions: EMSA: 11 mM Tris, 1 mM EDTA, 50 mM NaCl, pH 8.0-8.5, 20 min on ice then 30 min RT, mutants/deltaNAC: 4 ul protein in 20 mM Tris-HCl, 200 mM NaCl in 10 ul, 0.5% ….
Data set [3] relates to aSyn A30P (human). As to conditions: 1.4 uM protein, 1.3 nM DNA; EMSA: 11 mM Tris, 1 mM EDTA, 50 mM NaCl, pH 8.0-8.5, 20 min on ice then 30 min RT; mutants/deltaNAC: 4 ul protein in 20 mM Tris-HCl, 200 mM NaCl in 10 ul, 0.5% ….
Data set [4] deals with aSyn A53T (human). As to conditions: 1.4 uM protein, 1.3 nM DNA; EMSA: 11 mM Tris, 1 mM EDTA, 50 mM NaCl, pH 8.0-8.5, 20 min on ice then 30 min RT; mutants/deltaNAC: 4 ul protein in 20 mM Tris-HCl, 200 mM NaCl in 10 ul, 0.5% ….
Data set [5] has as its system aSyn E46K (human). The note with it: 1.4 uM protein, 1.3 nM DNA; EMSA: 11 mM Tris, 1 mM EDTA, 50 mM NaCl, pH 8.0-8.5, 20 min on ice then 30 min RT; mutants/deltaNAC: 4 ul protein in 20 mM Tris-HCl, 200 mM NaCl in 10 ul, 0.5% ….
In data set [6] the test system is beta-synuclein (bSyn) (human). The note with it: up to 57 uM protein, 4 nM DNA; EMSA: 11 mM Tris, 1 mM EDTA, 50 mM NaCl, pH 8.0-8.5, 20 min on ice then 30 min RT; mutants/deltaNAC: 4 ul protein in 20 mM Tris-HCl, 200 mM NaCl in 10 ul, 0.5% ….
Data set [7] has as its system deltaNAC aSyn (human). The note with it: 1.4 uM protein, 1.3 nM DNA; EMSA: 11 mM Tris, 1 mM EDTA, 50 mM NaCl, pH 8.0-8.5, 20 min on ice then 30 min RT; mutants/deltaNAC: 4 ul protein in 20 mM Tris-HCl, 200 mM NaCl in 10 ul, 0.5% ….
In data set [8] the test system is gamma-synuclein (gSyn) (human). The note with it: up to 57 uM protein, 4 nM DNA; EMSA: 11 mM Tris, 1 mM EDTA, 50 mM NaCl, pH 8.0-8.5, 20 min on ice then 30 min RT; mutants/deltaNAC: 4 ul protein in 20 mM Tris-HCl, 200 mM NaCl in 10 ul, 0.5% ….

Values joined by “and” are separate entries in the source; they are usually repeats but may differ in a detail not shown here. Equal entries are not always repeated.

Here are results for twelve substances from PMC8800120.

Regarding 125 bp DNA, the figures for the binding signal (fraction shifted) in data set [1] and in data set [2] were 0.327 and 0.007, respectively.
For the substance 200 bp DNA, the binding signal (fraction shifted) worked out at 0.74 in data set [1] and 0.12 in data set [2].
Turning to 300 bp DNA (length series), the results for the binding signal (fraction shifted) in data set [1] and in data set [2] were 0.803 and 0.617, respectively.
As for 300 bp DNA, 56% GC, the binding signal (fraction shifted) in data set [1] (57 uM aSyn) was determined as 0.81.
Same read-out and setting: then 300 bp DNA, 67% GC, with 0.693.
As to “300 bp linear DNA (ends not specified for the experiment)”, the binding signal (fraction shifted) in data set [3] stood at 0.27; in data set [4] it was 0.379; in data set [5] it was 0.975; in data set [1] (1.4 uM protein, 1.3 nM DNA, deltaNAC series), 0.597; in data set [1] (1.4 uM protein, 1.3 nM DNA, point mutant series), 0.55; in data set [1] (57 uM protein, 4 nM DNA, paralog series), 0.199. The binding signal (fraction shifted) in data set [1] is 1 and 0.997; in data set [6], 0; in data set [7] it was 1; in data set [8], 0. In addition, the K half in data set [1] (0.1 nM DNA) was determined as 273 nM; in data set [1] (6 nM DNA) it was 5850 nM; in data set [2] (0.1 nM DNA), 27.3 µM; in data set [2] (6 nM DNA), 32.5 µM.
Regarding “300 bp linear DNA with 4-base 5' overhangs”, the binding signal (fraction shifted) in data set [1] stood at 0.917; in data set [2], 0.573.
In the same order, the values of 300 bp linear DNA, blunt are 0.857 and 0.607.
For the substance 304 bp circular DNA (made with HMGB1), the K half in data set [1] (covalently closed circle) came to 1610 nM.
Regarding “304 bp circular DNA topoisomer (made with HMGB1)”, the K half in data set [1] (covalently closed circle, topoisomer) was 1640 nM.
Regarding 400 bp DNA, the binding signal (fraction shifted) in data set [1] turned out to be 0.947; in data set [2], 0.927.
In the same order, the values of 500 bp DNA are 1 and 1.
